Numbering of substitutions follows the chain as printed. Names and notes keep the numbering of the source. Where two headings read alike, the source gives them in different places.

Assay [1] deals with UBA5. The note with it: in vitro; cited from earlier work. An excerpt: The UBA5 C-terminal part (Figure 1A) plays a complex regulatory role, consisting of a few conserved regions that mediate interaction of UBA5 with other key players in the ufmylation cascade. The first sequence is a conserved region (R1, residues 334–348), interacting with UFM1 [10, 29, 30, 31, 32] and also with LC3/GABARAP proteins. This region (called LIR/UFIM by its dual nature) is important for the initial binding of UFM1 to UBA5 [10, 29, 31, 32] and for the following UFM1 activation in a trans-fashion. Trans-activation means that UBA5 forms an active ho ...

The subject of assay [2] is UBA5. The following applies: cited from earlier work. An excerpt: Another conserved region in UBA5 is located at it very C-terminus (R3, residues 393–404) and is predicted to have a helical conformation. […] UFC1, the only known E2 enzyme for UFM1, was characterized structurally a few years after discovery of the UFM1 cascade. […] In our structure we observed that the UFC1 K33 sidechain forms an intermolecular hydrogen bond with the UBA5 D389 sidechain (Figure 3F). In contrast, UFC1 Q31 is not in contact with any of the UBA5 R3 residue and could not affect the UBA5:UFC1 interaction.

Another assay has as its target T1, UFC1 (Homo sapiens, UniProt Q9Y3C8).
T1 construct: Full length UFC1, residues 1–167; modified ubiquitin tag (Ub19) with TEV site (N, cleaved yes); made in house; host or cells: E. coli T7 Express
T1 sequence (Q9Y3C8 1-167): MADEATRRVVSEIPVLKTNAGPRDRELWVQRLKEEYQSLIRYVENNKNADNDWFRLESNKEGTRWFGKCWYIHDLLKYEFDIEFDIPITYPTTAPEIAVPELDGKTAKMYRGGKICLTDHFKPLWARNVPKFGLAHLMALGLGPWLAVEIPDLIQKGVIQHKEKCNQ
The assay is described as follows: In vitro thioester formation (ufmylation) assay, UFC1~UFM1 conjugate. It is filed as biochemical. The note with it: 70 µM UFM1, 20 µM UFC1, 20 µM UBA5 construct, 1 mM ATP, 50 mM HEPES pH 7.5, 22 °C. The method, then:
First, we analyzed the effect of the UBA5 C-terminus on UFM1 transfer to UFC1 with an in vitro thioester formation assay (Figure 1B–E).
Ufmylation reaction assays were adopted from work of Xie. Briefly, 70 µM UFM1, 20 µM UFC1 and 20 µM of different UBA5 constructs were mixed in reaction buffer (50 mM HEPES pH = 7.5, 100 mM NaCl, 5 mM MgCl2). After starting the reaction with addition of 1 mM ATP, the reaction mix was incubated at 22 °C for the desired time. To quench the reaction and prepare electrophoretic samples, 1 µL of the reaction mix was added to 99 µL 1x non-reducing SDS loading buffer and frozen in liquid nitrogen. Sample content was visualized by sodium dodecyl sulfate polyacrylamide gel electrophoresis (SDS-PAGE). The transfer to polyvinylidene difluoride (PVDF) membrane was performed via a Trans-Blot® Turbo™ Transfer System (Bio-Rad, München, Germany). After transfer the membrane was blocked with TBST (Tris-buffered saline with Tween20 buffer, 20 mM Tris, 150 mM NaCl and 0.1% TWEEN 20) containing 5% w/v nonfat dry milk for 1 h, followed by α-UFC1 antibody incubation over night at 4 °C (ab189251 abcam, 1:10,000 in TBST containing 5% w/v nonfat dry milk). After washing with TBST the membrane was incubated with secondary antibody (anti-rabbit-HRP) for 1 h at RT and again washed with TBST. […] For quantification of UFC1 ufmylation coloc2 software implemented in ImageJ was used.

B1: GABARAP: GABARAP, residues 3–116 (protein)
chain: GAMFVYKEEHPFEKRRSEGEKIRKKYPDRVPVIVEKAPKARIGDLDKKKYLVPSDLTVGQFYFLIRKRIHLRAEDALFFFVNNVIPPTSATMGQLYQEHHEEDFFLYIAYSDESVYG
modifications: left off: modified ubiquitin tag (Ub19), N-terminal, cleaved
As to B1, the “effect on UFM1 binding to UBA5” value in the assay with UBA5 [1] was “inhibit UFM1 binding to UBA5”.

B2: UFC1 K33A: UFC1 K33A mutation, literature (protein, UniProt Q9Y3C8 1-167, looked up, variant K33A)
Ubiquitin-fold …: T1 sequence (Q9Y3C8 1-167) with K33A
On to B2, for which the “effect of UFC1 mutation on UBA5 binding and UFM1 transfer” value is “significantly reduces both UBA5 binding and UFM1 transfer from UBA5 to UFC1” with UBA5 [2]; “impaired UBA5 binding and UFM1 transfer to UFC1” in the assay with UBA5 [2] (listed as K33A).

B3: AD^1–330: UBA5 adenylation domain, residues 1–330 (protein, UniProt Q9GZZ9 1-330, looked up, fragment)
chain: MAESVERLQQRVQELERELAQERSLQVPRSGDGGGGRVRIEKMSSEVVDSNPYSRLMALKRMGIVSDYEKIRTFAVAIVGVGGVGSVTAEMLTRCGIGKLLLFDYDKVELANMNRLFFQPHQAGLSKVQAAEHTLRNINPDVLFEVHNYNITTVENFQHFMDRISNGGLEEGKPVDLVLSCVDNFEARMTINTACNELGQTWMESGVSENAVSGHIQLIIPGESACFACAPPLVVAANIDEKTLKREGVCAASLPTTMGVVAGILVQNVLKFLLNFGTVSFYLGYNAMQDFFPTMSMKPNPQCDDRNCRKQQEEYKKKVAALPKQEVIQE
modifications: adenylation domain
As to B3, in the assay with UFC1 (7 h), the “UFC1~UFM1 conjugation” value is 80%. In addition, the “UFC1 conjugated to UFM1 (UFC1~UFM1)” value in the assay with UFC1 (within 30 min, Western blot, triplicates) is “less than 5%”.
